# Measured values taken from a protein production outcome set (Wang et al. 2014).
# Assay: label from the status in PepcDB records
row,Sequence,protein production
1,MFTLALPTPPPLAQARGSGLSAAFAAGAVIPVGDTPGGIALTPTGTRAYVANHGSNTVSVLDTVTDTVIDTIATGGGPNAVAFSPDGTRAYVTVADDGLVSVIDTATNTIVTDIAVGAGATGVAVTPDGSRVYVTLQSSDTVGVIDTATNTVTASIPAAGTPLGLVITPDGTRAYVACLFANAVRVIDTATNTVIATIPVGPVPILLAVSPGGTHVYVTNVGNSTVSVIDTATSAVIATVGVSAQPRFAAVSPDGFHVYVANSGPDTVSVIDTATQTVVENIGVGDGPTGIALLPDGTRAYVTNAVAGTVGVMATTVIPDQGSTAGGTTVTLTGHHLANATAVHFGTAQAVITANTATSMTVTAPAGSGAVPVTVTTAGGTGTLGHFYYVPVPALSGINPAAGPVAGSDDEIVLTGRHLAGAIDVYFGTTRAVIQTVSDNQVTVRAAGAPAPGGTAVTVITAGGSAGGLSYTYLDPSTVTGVSPDSGPTTGGTEVTITGTGLAGTEQVTFNGIPAAFTVVSDSTLTATTPPSGAAGPVGVTVTGPGGAPAGTFTYVSEPDI,failed
2,MGPVPEFSVIIPARNEAAYLPGTLRALERQTLAPAEVIVVDNASRDQTAQIARSWGAQVLSCPEGGVARARQLGLDTARSSWVATTDADSLPAPGWLAAYAQAALLAGGYPEVEAYEDVILGQNLARLGEIGYVPRALVETSARRLDRGVGPFLIQHLRNLTGHTRGLEHHHHHH,failed
3,MTAYDLKLKCVCDYIQQHLDETLSLQQLSEVAGLSRFHFHRIFYAHLGMNIMKYTQMLRLKRASFQLVFKPEVKVIEIALDAGFDSPEAFARAFKRSFDQTPSAFRVEPNWQNWHRKFVYFTPESELKMNVTIIERPVEKIAYISHQGSPEKVFETAAKFIEWRKRTGLSPVKTSATYGIPFSDPEQTPEKEFRFDIAGSITKSIDQNNEGIEMSEIPAGRYAMVRHWGSHDYIRDSVYFLFRNWLPAQQEEAGDYPVFFHYHNFVHEVKEADLVTDIYLLLK,failed
4,MKITTKGRYGLTITLELAKRIGDGPISLRSIAQDKNLSEHYLEQLIGPLRNAGIVKSIRGAHGGYVLNGDPEKITAGDIIRTLEGPIVLVESMEDEEAAQRELWTRMRNAVRDVLDQTTLSDLLKHSTDSELTDGYMFYI,not failed
5,MGISPDAASKLYTVKFQPDPIDKKGWSVIDFNNCCTQDGGWYLNMGWGVESLIDNNPGTQWLCRWDVKEPLPYYFVFDMGKEYTLFRFGFANPVAPAAHVWAGTSKAGYVEASIDNENWVKLKDWTSPKIGEPNVNMDVPATQARYIRFVITDTYPTYDGLRVSLGEVYAWGLEHHHHHH,not failed
6,MDNVIKLVPSRWVSESVLMSISGLKKNTIKTARETSWMEGLEYKHVAPDGQPYDNSMCFYNRDEIDKWIERQPAAISRKKSA,failed
7,MDFLLRTITMNERRALGFGVAAVLLWSTVATAFKITLEHFTPTQMLTIASAVSILALAGVAAYQKTLSQLIDTFLANPLYYILLGAINPLAYYLVLFKSYDLLPASQAQPLNYSWAITLTLMAAVFLGQKIRKQDWIACVLGYLGVIVIATKGDVLALEFDSPLGVGLALFSTLLWAGYWILNTKNKADPILGLLLGFLVALPVAIGLSIYEGAPWAQIPMSGWAAVSYVGLFEMGVTFVLWLSALRLTQNTARISNLIFASPFISLLLLANIIGEEIHPSTLIGLIMIVCGLLIQQFFGKKEELQTEQ,failed
8,MRLPGSGYSYTVIQSKNNYSQKSSFGISFVILSRGTKIFREDLFEFLSNFDFIREIISIEKQSNRSSLQFISESYGKLKFILLSDDLNSGEKVNLAMKESSCDFVFVLQSDMYLLNPFWIPNIFDEIVKKNVLLVGGEFFDKEEEMIPSIFLPSIDKKQKFKVILVNSEKDYEKTLITMDYCGLYSKEKFLQLGGFDARIQNEYFQRIDFGLRAIYFGEHVYIYRKLRIQYTALNSPENLTKSKSFLIFLLKNYVPIFVGNGVVFSFLRFCKICLKYKINPFLFQKEFKEIKGEITKNSLRFKGDLKSAIELWENDIID,failed
9,MTNLDEFLEELSSIESHSQKIVKIDEHLKKLDEETKEDEDEDAAKIIQDRSTAREAEIALLMDLRQNFLPPPSMSSSSLQPPSSSTLAPSSSSSLQPPAPLIDFFRSSVSYSHQPPSSSTLATSSSPSLQPPSMSSSSLQPPASLREFFTSSVSYSHQPSSSSTLATSSFFPSSMPYSVRPPDSSDRPSLREFFPSSPSSSIQPPESSSSKRARLSNIFPSPLSSSPSPFVNPFLRPQAQEPTIPNFINPIPQISPGLPALFPNPNPNPNPNPIPNPIRNPDLVWTNRLQLVFDDAVVRLGGLFSATPKAINELISEEGLTGDQIRSHLQVLRDRQKAIADKLALE,failed
10,MLNPEQVKRFLETAKQDPLYPAFLLALGTGLRRGEILGLRWQDLDLQKGILQVRQSLIRTREGLKFEEPKTEKSRRQIPLPPSVVAALKRHKAWVNQNKLILGPDYEDHDLVFPVENGRPRDPKGFAEYFNRLLDKAGLPHIRLHDLRHTHATLLLLEGVHPKVVQERLGHSTVSITLDIYSHILPGLQEKAAERIDGLLQPKENPSPKEGTIKLEHHHHHH,not failed
11,MGGKYSRGEERRPLGFPGFSALCCCQKTNREETPLGFCDIKARRSNLSFGREDPAYLDMAYFPDNDLHMAACAGDLPFVRLYFTLGKYEVNHRDRENRNAMHFACFYGHLELVIYLWRRGCEINVCDNHNITPLMKAVQSWEDKIVCFLLEHHANLHIKDSMGNTALHYAVYSGNLATAARLLQYGADIEERTKDNLTPLLLALRENRLKMAQFLVRMEASVHAVDSQRRNSLMYAVRCDSPVMVNLILQQGVDINLKDLFGWTALRYAIEGDRDVRTMLLELRKRNRAFQSSENSSIRLINKADAEVTSPTANEKVIEMQDPFTTNEASVEKTQTRRPAESELEVFSLEEEISYKETINNLQQNPGQRSAKTDAATENRSP,failed
12,KALAHAKNDSVAVATDDLKEGEEIQVAFLDNNEKTKITTAEVIPLGHKISLKDIKKGENVIEYGEVIGAATKDIKRGEHVHIHNIKSLRW,failed
13,SRKVFVGGLPPDIDEDEITASFRRFGPLVVDWPHKAESKSYFPPKGYAFLLFQEESSVQALIDACLEEDGKLYLCVSSPTIKDKPVQIRPWNLSDSDFVMD,not failed
14,MDGGDDGNLIIKKRFVSEAELDERRKRRQEEWEKVRKPEDPEECPEEVYDPRSLYERLQEQKDRKQQEYEEQFKFKNMVRGLDEDETNFLDEVSRQQELIEKQRREEELKELKEYRNNLKKVGISQENKKEVEKKLTVKPIETKNKFSQAKLLAGAVKHKSSESGNSVKRLKPDPEPDDKNQEPSSCKSLGNTSLSGPSIHCPSAAVCIGILPGLGAYSGSSDSESSSDSEGTINATGKIVSSIFRTNTFLEAP,not failed
15,MLRFAVLGHPVAHSLSPAMHAFALESLGLEGSYEAWDTPLEALPGRLKEVRRAFRGVNLTLPLKEAALAHLDWVSPEAQRIGAVNTVLQVEGRLFGFNTDAPGFLEALKAGGIPLKGPALVLGAGGAGRAVAFALREAGLEVWVWNRTPQRALALAEEFGLRAVPLEKAREARLLVNATRVGLEDPSASPLPAELFPEEGAAVDLVYRPLWTRFLREAKAKGLKVQTGLPMLAWQGALAFRLWTGLLPDPSGMEEAARRALGV,not failed
16,MGKGKSAIESQIRMLKLAKEIVEEVASSFPNLEEVYIFGSRARGDYLDTSDIDILFVFKGIKEMNVFDRMYMVSRFIRGNVDYIVLDEGEKDRVKDKVLFWKREKGFVLL,not failed
17,MAEFTHLVNERRSASNFLSGHPITKEDLNEMFELVALAPSAFNLQHTKYVTVLDQDVKEKLKQAANGQYKVVSSSAVLLVLGDKQAYQQAADIYEGLKVLGILNKQEYDHMVQDTVSFYENRGEQFKRDEAIRNASLSAMMFMLSAAAAGWDTCPMIGFDAEAVKRILNIDDQFEVVMMITIGKEKTESRRPRGYRKPVNEFVEYM,not failed
18,MGNCVFKGNGGSRKLYDKDDSLIKVVTPNGGVMELHPPIFAEFITNEFPGHVIHDSLSLRHSSPPLLHGEELFPGNIYYLLPLSSSAAATAQLDSSDQLSTPYRMSFGKTPIMAALSGGGCGVWKVRLVISPEQLAEILAEDVETEALVESVRTVAKCGGYGCGGGVHSRANSDQLSVTSSFKGKLW,not failed
19,MGHHHHHHSHMSSRGHSTLPRTLMAPRMISEGDIGGIAQITSSLFLGRGSVASNRHLLQARGITCIVNATIEIPNFNWPQFEYVKVPLADMPHAPIGLYFDTVADKIHSVSRKHGATLVHCAAGVSRSATLCIAYLMKFHNVCLLEAYNWVKARRPVIRPNVGFWRQLIDYERQLFGKSTVKMVQTPYGIVPDVYEKESRHLMPYWGI,failed
20,YCKTIPMPDLAYSEISVIGKLIRALPEPCALHLANSSTVRYAQLFTVPPQVEICCNRGVNGIEGSLSTAIGYAAASSKLNFIIIGDLSFFYDMNALWNQNYGANIRILLLNNEGGEIFHTLPGMDKSSRSREFITAEHYTTAKGWAEERGFIYMKVTGEEELEEAMQPFTSPETRMQPMLLEVFTDKEKD,failed
21,MPKLLIPAIIFITLALIFYTIGVWSEHRAGILKKKHVIIFWCGLVCDTLGTYTMSRIVAAGTDKGITPTDLLIHQSTGMLAIILMLIHAVWATIVLNRGSEKAKAIFHKFSLVVWFIWLIPYFVGMYIGMTS,failed
22,MYNPVGVAAIGLGRWAYVMADAYTKSEKLKLVTCYSRTEDKREKFGKRYNCAGDATMEALLAREDVEMVIITVPNDKHAEVIEQCARSGKHIYVEKPISVSLDHAQRIDQVIKETGVKFLCGHSSRRLGALRKMKEMIDTKEIGEVSSIEAVFSNERGLELKKGNWRGEPATAPGGPLTQLGVHQIDNLQFLLGPVARVFNFGKPMYTEVENITVNQTLLEFEDGKQAYLGTNWACPGVFSINVYGTKANLFYQLDFSWWSNSDVTDEHSTLIKREFASMSDDPDNRILRDVKVDFESVDHLRVEVEEVADVIRNGGETEIGAEASLRNLAVVLAAVKSVHEKRPVEIAEIIG,not failed
23,MDIHQELKELSKFLSEYSTSLMAVGVQTSRIVRNTSRIAESFGFFCDMTIFQKTIIMTLRDADNSHSYSTVNKIKPMGLNFAINSALSTLSWEAYDEHLSLSELQRRYHEIVSKPRESKWLVLILVAFANASFCRLFQGDFISMGIVFVATLAGFFVRTELMGRHWNHLAIFIISSFIASMIGSTGYLMHWGDTPDMALGTSVLYLIPGVPLINAIMDIIDGHVLAGTSRFINACLLIICIAIGLSMTLLITGISTL,failed
24,MTQAASAAPQSAHSAKWKWAKRAFTAFFFIAVPVLLFMLVKNLDWQEVKKALASYKASTLAIAAVVAFASYATYCGFDILARYYTRHKLSIKQIVPVTFVCYAFNLNLSSWVGGIALRYRLYSRLGLEVSTITRILSLSLITNWLGYMLLAGFVFSMRFLELPEEWSIGTTTLQLIGFGLLAVCFSYLLACRFSKKRSWTIRDQEFNLPSMKQALMQASLGALNWALMAAVIYTLLPDKAFYPAILGVLLISSIAGVITHIPAGLGVLETVFITLLSHQFSKGSLLAALIGYRAIYFLLPLMIALVVYLVLEKRAKKMGEKNQRRMGQEANS,failed
25,MARKTAQSKRGVFNMDRLTSMAVFVKAVDLGSFAAAAEALGLSGPMVGKHVRSLEDRLGVQLINRTTRRQSLTEFGYVYYERCRVVLAEAQAADALASDQLSEPRGKLRVTMPVHFGRHCVTPVLLELARKYPALELDLSFNDRIIDLAEDGFDLSIRTGVLEDRAGLIARRVARQPMIVCASPSYLESHGCPEAPEDLAQHAAVVYRRSGPVSPWLFPRPGQSSSEVTPLHRFRLDDLDAIADAAARGLGLAWLPYWLVRGRIEAGTLVRLLPEQPPFLYDCHAVWLQTPHLPLKVRVAVDALAAQLPSFMT,failed
26,MKRADFCIIGLGRFGMQVAHSLKENNFTLVLIDNDQHKTNTAAQEFDHVVCCDGSNLTALAELQLEEFSAVIVGVTNIEASIMICANLRELGQKNIIARAKNEVHNRVLRTMGIREALIPEKIVGKNLVIRLIHGMETEIINLGNDILFVRAPVNNKKLFNRTLGEINIREHTNANLISIMRNGKDVVFPLGPNTQIQPGDVITAVCQLSGVNQYLRYINPNDKNKYKASE,failed
